The source of these data is patent US20260242478A1 (published 2026).

Where no end group is shown, it is not given here.

The target in experiment [1] is T1, PSMA Fab.
T1 construct: Biotinylated and captured on neutravidin plates in the phage ELISA; also called Anti-PSMA Fab; 006 PSMA Fab
Description: clonal phage ELISA on biotinylated PSMA Fab captured on neutravidin plates, anti-M13-HRP detection; blocking buffer alone.
Description: (§1) Clonal phage were harvested as crude supernatants and screened via standard ELISAs. […] Prior to the addition of clonal phage. wells were incubated with blocking buffer and PSMA antigen or blocking buffer alone. Without washing or aspirating, clonal phage supernatants were then added to the wells and incubated for a short time. Wells were then washed followed by detection of bound phage using a horse radish conjugated anti-M13 antibody.

Experiment [2] concerns the target T2, PSMA Fab.
T2 construct: also called Anti-PSMA Fab; 006 PSMA Fab
The experiment is described as follows: phage binding ELISA; biotinylated PSMA Fab on neutravidin plate, clonal phage supernatant, anti-M13 HRP detection; column read as anti-PSMA Fab without PSMA antigen.
Description: as §1

Experiment [3] deals with T2, PSMA Fab. The experiment is described as follows: phage binding ELISA; biotinylated PSMA Fab on neutravidin plate, clonal phage supernatant, anti-M13 HRP detection; column read as anti-PSMA Fab pre-incubated with PSMA antigen as competitor. (In general: An ELISA detects its analyte on a solid surface through an enzyme-linked reagent.)
Description: as §1
Experiment [4] has as its target T3, PSMA Fab (biotinylated (site not given)).
T3 construct: Biotinylated PSMA Fab captured on neutravidin plates in the phage ELISA; also called Anti-PSMA Fab; 006 PSMA Fab
Description: phage ELISA on captured biotinylated PSMA Fab, wells pre-incubated with PSMA antigen (competitor: PSMA); anti-M13 HRP detection.

Experiment [5] deals with T3, PSMA Fab. Description: phage ELISA: clonal phage supernatant on biotinylated PSMA Fab captured on neutravidin plate, blocking buffer alone; anti-M13 HRP detection.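 Further: crude clonal phage supernatants added to wells preincubated with blocking buffer, incubated briefly, bound phage detected with a horseradish-conjugated anti-M13 antibody.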
Description: as §1

B1: Phage-2527 (peptide)
peptide: LGHWCTPPWMCTES
modifications: cysteine pairing not given here; also: fused to phage pIII, linker and fusion site not given here
notes: Clonal phage of the Peptide-180 library, tested as crude supernatant; not shown: pIII coat protein of the bacteriophage to which the peptide is fused
For B1, the “Phage binding ELISA signal, Anti-PSMA Fab” value in experiment [1] is 1.17.

B2: Phage-2528 (peptide)
peptide: YEKWCTPAWMCDFV
modifications: cysteine pairing not given here; also: fused to phage pIII, linker and fusion site not given here
notes: as for B1
Take B2: in experiment [1], the “Phage binding ELISA signal, Anti-PSMA Fab” value was 1.17. On to HPQLCIPSWMCNVW [Phage-2594], for which the results for the “phage binding ELISA signal” value in experiment [2] and in experiment [3] were 1.05 and 0.105, respectively.

B3: Phage-2542 (peptide)
peptide: DLKWCFPDWMCQVG
modifications: cysteine pairing not given here; also: fused to phage pIII, linker and fusion site not given here
notes: as for B1
On to B3, for which, in experiment [1], the “Phage binding ELISA signal, Anti-PSMA Fab” value is 1.15.

B4: Phage-2538 (peptide)
peptide: EPKWCVPPWMCAYD
modifications: cysteine pairing not given here; also: fused to phage pIII, linker and fusion site not given here
notes: as for B1
Regarding B4, the “Phage binding ELISA signal, Anti-PSMA Fab” value in experiment [1] stood at 1.16.

B5: Phage-2536 (peptide)
peptide: VSPKCIPPWMCSYV
modifications: cysteine pairing not given here; also: fused to phage pIII, linker and fusion site not given here
notes: as for B1
For the molecule B5, the “Phage binding ELISA signal, Anti-PSMA Fab” value in experiment [1] was determined as 1.16. In the case of MPRWCTPAWMCEAI [Phage-2590], the “phage binding ELISA signal” value in experiment [2] was 1.05; in experiment [3], 0.063. Consider HFNWCTPSWMCDVL [Phage-2592], for which the “phage binding ELISA signal” value is 1.05 in experiment [2] and 0.118 in experiment [3].

B6: Phage-2535 (peptide)
peptide: DWKWCTPAWMCSTE
modifications: cysteine pairing not given here; also: fused to phage pIII, linker and fusion site not given here
notes: as for B1
With B6, in experiment [1], the “Phage binding ELISA signal, Anti-PSMA Fab” value stood at 1.16.

As to MVKWCTPPWMCNFE [Phage-2595], the “phage binding ELISA signal” value in experiment [2] stood at 1.05; in experiment [3], 0.121.

B7: Phage-2537 (peptide)
peptide: EMKWCIPQWMCADS
modifications: cysteine pairing not given here; also: fused to phage pIII, linker and fusion site not given here
notes: as for B1
Regarding B7, the “Phage binding ELISA signal, Anti-PSMA Fab” value in experiment [1] was 1.16.

B8: Phage-2539 (peptide)
peptide: LMNWCIPSWMCDVE
modifications: cysteine pairing not given here; also: fused to phage pIII, linker and fusion site not given here
notes: as for B1
For B8, the “Phage binding ELISA signal, Anti-PSMA Fab” value in experiment [1] came to 1.15.

B9: Phage-2533 (peptide)
peptide: PVPLCRPPWMCQSV
modifications: cysteine pairing not given here; also: fused to phage pIII, linker and fusion site not given here
notes: as for B1
Consider B9, for which the “Phage binding ELISA signal, Anti-PSMA Fab” value in experiment [1] came out at 1.16. With VLNWCTPPWMCLGI [Phage-2589], the figures for the “phage binding ELISA signal” value in experiment [2] and in experiment [3] were 1.06 and 0.107, respectively.

B10: Phage-2478 (peptide, not shown: large carriers)
peptide: EMIRCIPDWMCMSY
modifications: cysteine pairing not given here; also: displayed on phage as fusion to pIII, pIII and linker sequence not given here
notes: Clonal phage of the Peptide-180 optimisation library, tested as crude supernatant
Take B10: in experiment [4], the “Phage binding ELISA signal, Anti-PSMA Fab in presence of PSMA” value (“Phage binding ELISA signal … of PSMA” below) worked out at 0.0624. Also, the “Phage binding ELISA signal, Anti-PSMA Fab” value in experiment [5] was determined as 1.23.

B11: Phage-2541 (peptide)
peptide: PTKWCIPEWMCVES
modifications: cysteine pairing not given here; also: fused to phage pIII, linker and fusion site not given here
notes: as for B1
Consider B11, for which, in experiment [1], the “Phage binding ELISA signal, Anti-PSMA Fab” value was 1.15.

B12: Phage-2534 (peptide)
peptide: VPKWCIPVWMCEVM
modifications: cysteine pairing not given here; also: fused to phage pIII, linker and fusion site not given here
notes: as for B1
Take B12: the “Phage binding ELISA signal, Anti-PSMA Fab” value in experiment [1] amounted to 1.16.

B13: Phage-2480 (peptide, not shown: large carriers)
peptide: PFKWCTPAWMCEVH
modifications: cysteine pairing not given here; also: displayed on phage as fusion to pIII, pIII and linker sequence not given here
notes: as for B10
As for B13, the “Phage binding ELISA signal … of PSMA” value in experiment [4] amounted to 0.0594. Also, in experiment [5], the “Phage binding ELISA signal, Anti-PSMA Fab” value came to 1.23.

B14: Phage-2529 (peptide)
peptide: IVKWCTPHWMCSGW
modifications: cysteine pairing not given here; also: fused to phage pIII, linker and fusion site not given here
notes: as for B1
Take B14: the “Phage binding ELISA signal, Anti-PSMA Fab” value in experiment [1] was 1.17.

B15: Phage-2481 (peptide, not shown: large carriers)
peptide: WSNWCIPPWMCAMN
modifications: cysteine pairing not given here; also: displayed on phage as fusion to pIII, pIII and linker sequence not given here
notes: as for B10
For the molecule B15, the “Phage binding ELISA signal … of PSMA” value in experiment [4] was 0.0771. Besides, the “Phage binding ELISA signal, Anti-PSMA Fab” value in experiment [5] is 1.23.

In the case of TDKWCVPEWMCMEF [Phage-2591], the “phage binding ELISA signal” value in experiment [2] came out at 1.05; in experiment [3] it was 0.0773. Regarding LVKWCVPDWMCQET [Phage-2598], the “phage binding ELISA signal” value in experiment [2] amounted to 1.04; in experiment [3] it was 0.0671.

With MIGWCTPSWMCSGF [Phage-2588], the “phage binding ELISA signal” value in experiment [2] was found to be 1.06; in experiment [3] it was 0.0716. The like results for VHKWCTPAWMCEVH [Phage-2597] were, in that order, 1.04 and 0.0662. The corresponding values for DGIWCTPRWMCEGM [Phage-2593] are 1.05 and 0.0865.

B16: Phage-2479 (peptide, not shown: large carriers)
peptide: GFPMCKPLWMCENL
modifications: cysteine pairing not given here; also: displayed on phage as fusion to pIII, pIII and linker sequence not given here
notes: as for B10
In the case of B16, the “Phage binding ELISA signal … of PSMA” value in experiment [4] is 0.0667. Further, in experiment [5], the “Phage binding ELISA signal, Anti-PSMA Fab” value was 1.23.

B17: Phage-2530 (peptide)
peptide: VTHWCIPEWMCVVE
modifications: cysteine pairing not given here; also: fused to phage pIII, linker and fusion site not given here
notes: as for B1
On to B17, for which the “Phage binding ELISA signal, Anti-PSMA Fab” value in experiment [1] was determined as 1.17.

B18: Phage-2532 (peptide)
peptide: EHRWCIPVWMCEKS
modifications: cysteine pairing not given here; also: fused to phage pIII, linker and fusion site not given here
notes: as for B1
B18: in experiment [1], the “Phage binding ELISA signal, Anti-PSMA Fab” value came out at 1.16.

B19: Phage-2531 (peptide)
peptide: YEKWCIPRWMCEAN
modifications: cysteine pairing not given here; also: fused to phage pIII, linker and fusion site not given here
notes: as for B1
In the case of B19, in experiment [1], the “Phage binding ELISA signal, Anti-PSMA Fab” value was found to be 1.16. With MFKWCTPSWMCERV [Phage-2596], the “phage binding ELISA signal” value in experiment [2] came out at 1.05; in experiment [3] it was 0.176.

B20: Phage-2477 (peptide, not shown: large carriers)
peptide: VEKWCIPQWMCSMD
modifications: cysteine pairing not given here; also: displayed on phage as fusion to pIII, pIII and linker sequence not given here
notes: as for B10
As for B20, the “Phage binding ELISA signal … of PSMA” value in experiment [4] was found to be 0.0715. Further, in experiment [5], the “Phage binding ELISA signal, Anti-PSMA Fab” value was 1.23.

B21: Phage-2540 (peptide)
peptide: EMKWCTPEWMCIGL
modifications: cysteine pairing not given here; also: fused to phage pIII, linker and fusion site not given here
notes: as for B1
As to B21, the “Phage binding ELISA signal, Anti-PSMA Fab” value in experiment [1] was determined as 1.15.
